B1: 22227 (protein)
chain: MALPVTALLLPLALLLHAARPDIQMTQSPSSLSASVGDRVTITCKASDHINNWLAWYQQKPGQAPKLLIYGATTLETGVPSRFSGSGSGTDYTLTISSLQPEDFATYYCQQSWNTPWTFGQGTKLEIKRLEDLKNVFPPEVAVFEPSEAEISHTQKATLVCLATGFYPDHVELSWWVNGKEVHSGVCTDPQPLKEQPALNDSRYCLSSRLRVSATFWQNPRNHFRCQVQFYGLSENDEWTQDRAKPVTQIVSAEAWGRADCGFTSESYQQGVLSATILYEILLGKATLYAVLVSALVLMAMVKRKDSRGRAKRSGSGATNFSLLKQAGDVEENPGPTSATMDWIWRILFLVGAATGAHSGPQLGPYELWELSHGSALRRLLGLFGFEQVQLQQPGAELVKPGASVKMSCKASGYAFSSYWINWMKQKPGQGLEWIGQIYPGDGDTNYNGKFKGRATLTADTSSSTAYMQLSSLTSEDSAVYFCARSITTVVGCAMDYWGQGTSVTVSSTRIQNPDPAVYQLRDSKSSDKSVCLFTDFDSQTNVSQSKDSDVYITDKCVLDMRSMDFKSNSAVAWSNKSDFACANAFNNSIIPEDTFFPSPESSCDVKLVEKSFETDTNLNFQNLSVIGFRILLLKVAGFNLLMTLRLWSSRAKRSGSGVKQTLNFDLLKLAGDVESNPGPSRGHMTEYKPTVRLATRDDVPRAVRTLAAAFADYPATRHTVDPDRHIERVTELQELFLTRVGLDIGKVWVADDGAAVAVWTTPESVEAGAVFAEIGPRMAELSGSRLAAQQQMEGLLAPHRPKEPAWFLATVGVSPDHQGKGLGSAVVLPGVEAAERAGVPAFLETSAPRNLPFYERLGFTVTADVEVPEGPRTWCMTRKPGA
B2: 22228 (protein)
chain: MALPVTALLLPLALLLHAARPDIQMTQSPSSLSASVGDRVTITCKASDHINNWLAWYQQKPGQAPKLLIYGATTLETGVPSRFSGSGSGTDYTLTISSLQPEDFATYYCQQSWNTPWTFGQGTKLEIKRLEDLKNVFPPEVAVFEPSEAEISHTQKATLVCLATGFYPDHVELSWWVNGKEVHSGVCTDPQPLKEQPALNDSRYCLSSRLRVSATFWQNPRNHFRCQVQFYGLSENDEWTQDRAKPVTQIVSAEAWGRADCGFTSESYQQGVLSATILYEILLGKATLYAVLVSALVLMAMVKRKDSRGRAKRSGSGATNFSLLKQAGDVEENPGPTSATMDWIWRILFLVGAATGAHSGPQDKLTQWPKWLEGSGGGGSGGGGSGGGGSFEQVQLQQPGAELVKPGASVKMSCKASGYAFSSYWINWMKQKPGQGLEWIGQIYPGDGDTNYNGKFKGRATLTADTSSSTAYMQLSSLTSEDSAVYFCARSITTVVGCAMDYWGQGTSVTVSSTRIQNPDPAVYQLRDSKSSDKSVCLFTDFDSQTNVSQSKDSDVYITDKCVLDMRSMDFKSNSAVAWSNKSDFACANAFNNSIIPEDTFFPSPESSCDVKLVEKSFETDTNLNFQNLSVIGFRILLLKVAGFNLLMTLRLWSSRAKRSGSGVKQTLNFDLLKLAGDVESNPGPSRGHMTEYKPTVRLATRDDVPRAVRTLAAAFADYPATRHTVDPDRHIERVTELQELFLTRVGLDIGKVWVADDGAAVAVWTTPESVEAGAVFAEIGPRMAELSGSRLAAQQQMEGLLAPHRPKEPAWFLATVGVSPDHQGKGLGSAVVLPGVEAAERAGVPAFLETSAPRNLPFYERLGFTVTADVEVPEGPRTWCMTRKPGA
B3: 22230 (protein)
chain: MALPVTALLLPLALLLHAARPDIQMTQSPSSLSASVGDRVTITCKASDHINNWLAWYQQKPGQAPKLLIYGATTLETGVPSRFSGSGSGTDYTLTISSLQPEDFATYYCQQSWNTPWTFGQGTKLEIKRLEDLKNVFPPEVAVFEPSEAEISHTQKATLVCLATGFYPDHVELSWWVNGKEVHSGVCTDPQPLKEQPALNDSRYCLSSRLRVSATFWQNPRNHFRCQVQFYGLSENDEWTQDRAKPVTQIVSAEAWGRADCGFTSESYQQGVLSATILYEILLGKATLYAVLVSALVLMAMVKRKDSRGRAKRSGSGATNFSLLKQAGDVEENPGPTSATMDWIWRILFLVGAATGAHSGPQDKLTQWPKWLEGGGGSELPTQGTFSNVSTNVSGGGGQDKLTQWPKWLEGGGGSELPTQGTFSNVSTNVSGSGGGGSGGGGSGGGGSFEQVQLQQPGAELVKPGASVKMSCKASGYAFSSYWINWMKQKPGQGLEWIGQIYPGDGDTNYNGKFKGRATLTADTSSSTAYMQLSSLTSEDSAVYFCARSITTVVGCAMDYWGQGTSVTVSSTRIQNPDPAVYQLRDSKSSDKSVCLFTDFDSQTNVSQSKDSDVYITDKCVLDMRSMDFKSNSAVAWSNKSDFACANAFNNSIIPEDTFFPSPESSCDVKLVEKSFETDTNLNFQNLSVIGFRILLLKVAGFNLLMTLRLWSSRAKRSGSGVKQTLNFDLLKLAGDVESNPGPSRGHMTEYKPTVRLATRDDVPRAVRTLAAAFADYPATRHTVDPDRHIERVTELQELFLTRVGLDIGKVWVADDGAAVAVWTTPESVEAGAVFAEIGPRMAELSGSRLAAQQQMEGLLAPHRPKEPAWFLATVGVSPDHQGKGLGSAVVLPGVEAAERAGVPAFLETSAPRNLPFYERLGFTVTADVEVPEGPRTWCMTRKPGA
B4: 22234 (protein)
chain: MALPVTALLLPLALLLHAARPDIQMTQSPSSLSASVGDRVTITCKASDHINNWLAWYQQKPGQAPKLLIYGATTLETGVPSRFSGSGSGTDYTLTISSLQPEDFATYYCQQSWNTPWTFGQGTKLEIKRLEDLKNVFPPEVAVFEPSEAEISHTQKATLVCLATGFYPDHVELSWWVNGKEVHSGVCTDPQPLKEQPALNDSRYCLSSRLRVSATFWQNPRNHFRCQVQFYGLSENDEWTQDRAKPVTQIVSAEAWGRADCGFTSESYQQGVLSATILYEILLGKATLYAVLVSALVLMAMVKRKDSRGRAKRSGSGATNFSLLKQAGDVEENPGPTSATMDWIWRILFLVGAATGAHSQLGPYELWELSHGSGSGSGSQLGPYELWELSHSGGGSGQLGPYELWELSHGSSGPGSGSCQFDLSTRRLKCGSGSCQFDLSTRRLKCGSGGGGSGGGGSGGGGSFEQVQLQQPGAELVKPGASVKMSCKASGYAFSSYWINWMKQKPGQGLEWIGQIYPGDGDTNYNGKFKGRATLTADTSSSTAYMQLSSLTSEDSAVYFCARSITTVVGCAMDYWGQGTSVTVSSTRIQNPDPAVYQLRDSKSSDKSVCLFTDFDSQTNVSQSKDSDVYITDKCVLDMRSMDFKSNSAVAWSNKSDFACANAFNNSIIPEDTFFPSPESSCDVKLVEKSFETDTNLNFQNLSVIGFRILLLKVAGFNLLMTLRLWSSRAKRSGSGVKQTLNFDLLKLAGDVESNPGPSRGHMTEYKPTVRLATRDDVPRAVRTLAAAFADYPATRHTVDPDRHIERVTELQELFLTRVGLDIGKVWVADDGAAVAVWTTPESVEAGAVFAEIGPRMAELSGSRLAAQQQMEGLLAPHRPKEPAWFLATVGVSPDHQGKGLGSAVVLPGVEAAERAGVPAFLETSAPRNLPFYERLGFTVTADVEVPEGPRTWCMTRKPGA
B5: 22236 (protein)
chain: MALPVTALLLPLALLLHAARPDIQMTQSPSSLSASVGDRVTITCKASDHINNWLAWYQQKPGQAPKLLIYGATTLETGVPSRFSGSGSGTDYTLTISSLQPEDFATYYCQQSWNTPWTFGQGTKLEIKRLEDLKNVFPPEVAVFEPSEAEISHTQKATLVCLATGFYPDHVELSWWVNGKEVHSGVCTDPQPLKEQPALNDSRYCLSSRLRVSATFWQNPRNHFRCQVQFYGLSENDEWTQDRAKPVTQIVSAEAWGRADCGFTSESYQQGVLSATILYEILLGKATLYAVLVSALVLMAMVKRKDSRGRAKRSGSGATNFSLLKQAGDVEENPGPTSATMDWIWRILFLVGAATGAHSIYPPLLRTSQAMGSGGPGSGSCQFDLSTRRLKCGSGSCQFDLSTRRLKCGSGGGGSGGGGSGGGGSFEQVQLQQPGAELVKPGASVKMSCKASGYAFSSYWINWMKQKPGQGLEWIGQIYPGDGDTNYNGKFKGRATLTADTSSSTAYMQLSSLTSEDSAVYFCARSITTVVGCAMDYWGQGTSVTVSSTRIQNPDPAVYQLRDSKSSDKSVCLFTDFDSQTNVSQSKDSDVYITDKCVLDMRSMDFKSNSAVAWSNKSDFACANAFNNSIIPEDTFFPSPESSCDVKLVEKSFETDTNLNFQNLSVIGFRILLLKVAGFNLLMTLRLWSSRAKRSGSGVKQTLNFDLLKLAGDVESNPGPSRGHMTEYKPTVRLATRDDVPRAVRTLAAAFADYPATRHTVDPDRHIERVTELQELFLTRVGLDIGKVWVADDGAAVAVWTTPESVEAGAVFAEIGPRMAELSGSRLAAQQQMEGLLAPHRPKEPAWFLATVGVSPDHQGKGLGSAVVLPGVEAAERAGVPAFLETSAPRNLPFYERLGFTVTADVEVPEGPRTWCMTRKPGA
B6: 22237 (protein)
chain: MALPVTALLLPLALLLHAARPDIQMTQSPSSLSASVGDRVTITCKASDHINNWLAWYQQKPGQAPKLLIYGATTLETGVPSRFSGSGSGTDYTLTISSLQPEDFATYYCQQSWNTPWTFGQGTKLEIKRLEDLKNVFPPEVAVFEPSEAEISHTQKATLVCLATGFYPDHVELSWWVNGKEVHSGVCTDPQPLKEQPALNDSRYCLSSRLRVSATFWQNPRNHFRCQVQFYGLSENDEWTQDRAKPVTQIVSAEAWGRADCGFTSESYQQGVLSATILYEILLGKATLYAVLVSALVLMAMVKRKDSRGRAKRSGSGATNFSLLKQAGDVEENPGPTSATMDWIWRILFLVGAATGAHSGCPKWDAARCSGGGSGPGSGSCQFDLSTRRLKCGSGSCQFDLSTRRLKCGSGGGGSGGGGSGGGGSFEQVQLQQPGAELVKPGASVKMSCKASGYAFSSYWINWMKQKPGQGLEWIGQIYPGDGDTNYNGKFKGRATLTADTSSSTAYMQLSSLTSEDSAVYFCARSITTVVGCAMDYWGQGTSVTVSSTRIQNPDPAVYQLRDSKSSDKSVCLFTDFDSQTNVSQSKDSDVYITDKCVLDMRSMDFKSNSAVAWSNKSDFACANAFNNSIIPEDTFFPSPESSCDVKLVEKSFETDTNLNFQNLSVIGFRILLLKVAGFNLLMTLRLWSSRAKRSGSGVKQTLNFDLLKLAGDVESNPGPSRGHMTEYKPTVRLATRDDVPRAVRTLAAAFADYPATRHTVDPDRHIERVTELQELFLTRVGLDIGKVWVADDGAAVAVWTTPESVEAGAVFAEIGPRMAELSGSRLAAQQQMEGLLAPHRPKEPAWFLATVGVSPDHQGKGLGSAVVLPGVEAAERAGVPAFLETSAPRNLPFYERLGFTVTADVEVPEGPRTWCMTRKPGA

system: RAJI cells; experiment: JNG assay, co-culture with RAJI cells; format: cell-based; conditions: JNG cells expressing construct, co-culture with Raji
Method in brief: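 Read-out is NFAT-driven GFP measured by flow cytometry after ~4–18 h co-culture of SAR-expressing JNG cells with target cells (E:T about 1:2). SARs were introduced by lentiviral spinfection and selected with puromycin or blasticidin when possible; scores (+/- to 5+ ≈ 5–50% GFP+) are relative to parental JNG cells.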

Row | Molecule | NFAT-GFP ASSAY: Raji
1 | B1 | Raji (4+) (refer to approximately 5%, 10%, 20%, 30%, 40% and 50% GFP positive cells)
2 | B2 | Raji (2+) (refer to approximately 5%, 10%, 20%, 30%, 40% and 50% GFP positive cells)
3 | B3 | 4+ (refer to approximately 5%, 10%, 20%, 30%, 40% and 50% GFP positive cells)
4 | B4 | Raji (+/-) (refer to approximately 5%, 10%, 20%, 30%, 40% and 50% GFP positive cells)
5 | B5 | Raji (4+) (refer to approximately 5%, 10%, 20%, 30%, 40% and 50% GFP positive cells)
6 | B6 | Raji (5+) (refer to approximately 5%, 10%, 20%, 30%, 40% and 50% GFP positive cells)
